Molecular target: SNAP 25 (endogenous, rat neuronal cells) (rat) (UniProt P60881)
Assay: cell-based or functional assay

Sequence of UniProt P60881 (P60881 whole entry): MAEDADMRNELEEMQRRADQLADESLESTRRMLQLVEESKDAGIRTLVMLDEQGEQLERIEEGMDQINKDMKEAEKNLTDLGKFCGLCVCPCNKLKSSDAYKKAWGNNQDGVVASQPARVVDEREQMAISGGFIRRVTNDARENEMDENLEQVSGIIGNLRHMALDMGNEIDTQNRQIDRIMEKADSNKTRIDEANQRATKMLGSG

wt BoNT/A (wild type botulinum neurotoxin serotype A) (from UniProt P0DPI1 2-1296)
intracellular SNAP 25 cleavage (concentration of wt toxin used): 0.5 nM
